According to the supplement of paper PMC10567573:

B1: DLC1 (parent)
chain: KRSWEEHVTHWMGQPFNSDDRNTA

Variants of: B1
Experiment: protein stability index of a GFP-peptide fusion (GPS, HEK-293T) (PSI 1-6); higher = more stable
Settings: c terminus: a fixed tail appended
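Note: lentivirally expressed fusions sorted by FACS into six bins by GFP to DsRed ratio, PSI derived from sequencing read proportions per bin multiplied by bin number.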

Row | Variant | protein stability index
1 | KRSWEEHETHWMGQPFNSDDRNTA [V8E] | 4.24
2 | KRSWEEHFTHWMGQPFNSDDRNTA [V8F] | 3.34
3 | KRSWEEHPTHWMGQPFNSDDRNTA [V8P] | 4.21
4 | KRSWEEHGTHWMGQPFNSDDRNTA [V8G] | 4.02
5 | KRSWEEHMTHWMGQPFNSDDRNTA [V8M] | 3.66
6 | KRSWEEHITHWMGQPFNSDDRNTA [V8I] | 2.81
7 | KRSWEEHWTHWMGQPFNSDDRNTA [V8W] | 3.39
8 | KRSWEEHNTHWMGQPFNSDDRNTA [V8N] | 4.13
9 | KRSWEEHCTHWMGQPFNSDDRNTA [V8C] | 3.98
10 | KRSWEEHHTHWMGQPFNSDDRNTA [V8H] | 4.04
11 | KRSWEEHATHWMGQPFNSDDRNTA [V8A] | 4.13
12 | KRSWEEHQTHWMGQPFNSDDRNTA [V8Q] | 3.86
13 | KRSWEEHKTHWMGQPFNSDDRNTA [V8K] | 4.26
14 | KRSWEEHYTHWMGQPFNSDDRNTA [V8Y] | 3.99
15 | KRSWEEHLTHWMGQPFNSDDRNTA [V8L] | 3.31
16 | KRSWEEHSTHWMGQPFNSDDRNTA [V8S] | 3.88
17 | KRSWEEHDTHWMGQPFNSDDRNTA [V8D] | 4.42
18 | KRSWEEHRTHWMGQPFNSDDRNTA [V8R] | 4.22
19 | KRSWEEHVTCWMGQPFNSDDRNTA [H10C] | 2.92
20 | KRSWEEHVTAWMGQPFNSDDRNTA [H10A] | 2.17
21 | KRSWEEHVTTWMGQPFNSDDRNTA [H10T] | 2.32
22 | KRSWEEHVTQWMGQPFNSDDRNTA [H10Q] | 2.56
23 | KRSWEEHVTYWMGQPFNSDDRNTA [H10Y] | 1.92
24 | KRSWEEHVTDWMGQPFNSDDRNTA [H10D] | 3.39

Row | Variant | protein stability index
25 | KRSWEEHVTVWMGQPFNSDDRNTA [H10V] | 2.16
26 | KRSWEEHVTGWMGQPFNSDDRNTA [H10G] | 2.57
27 | KRSWEEHVTWWMGQPFNSDDRNTA [H10W] | 2.31
28 | KRSWEEHVTEWMGQPFNSDDRNTA [H10E] | 3.1
29 | KRSWEEHVTLWMGQPFNSDDRNTA [H10L] | 2.33
30 | KRSWEEHVTSWMGQPFNSDDRNTA [H10S] | 2.73
31 | KRSWEEHVTNWMGQPFNSDDRNTA [H10N] | 2.58
32 | KRSWEEHVTMWMGQPFNSDDRNTA [H10M] | 1.99
33 | KRSWEEHVTRWMGQPFNSDDRNTA [H10R] | 2.19
34 | KRSWEEHVTKWMGQPFNSDDRNTA [H10K] | 2.53
35 | KRSWEEHVTIWMGQPFNSDDRNTA [H10I] | 1.95
36 | KRSWEEHVTFWMGQPFNSDDRNTA [H10F] | 1.92
37 | KRSWEEHVTPWMGQPFNSDDRNTA [H10P] | 3.52
38 | KRSWEEIVTHWMGQPFNSDDRNTA [H7I] | 3.75
39 | KRSWEEGVTHWMGQPFNSDDRNTA [H7G] | 4.29
40 | KRSWEEDVTHWMGQPFNSDDRNTA [H7D] | 3.68
41 | KRSWEECVTHWMGQPFNSDDRNTA [H7C] | 3.33
42 | KRSWEEPVTHWMGQPFNSDDRNTA [H7P] | 4.2
43 | KRSWEEKVTHWMGQPFNSDDRNTA [H7K] | 3.44
44 | KRSWEESVTHWMGQPFNSDDRNTA [H7S] | 3.71
45 | KRSWEEAVTHWMGQPFNSDDRNTA [H7A] | 3.54
46 | KRSWEEQVTHWMGQPFNSDDRNTA [H7Q] | 2.75
47 | KRSWEEMVTHWMGQPFNSDDRNTA [H7M] | 2.84
48 | KRSWEEYVTHWMGQPFNSDDRNTA [H7Y] | 2.29

Row | Variant | protein stability index
49 | KRSWEERVTHWMGQPFNSDDRNTA [H7R] | 3.08
50 | KRSWEEFVTHWMGQPFNSDDRNTA [H7F] | 2.84
51 | KRSWEEWVTHWMGQPFNSDDRNTA [H7W] | 2.82
52 | KRSWEEEVTHWMGQPFNSDDRNTA [H7E] | 3.1
53 | KRSWEEVVTHWMGQPFNSDDRNTA [H7V] | 3.18
54 | KRSWEETVTHWMGQPFNSDDRNTA [H7T] | 3.21
55 | KRSWEENVTHWMGQPFNSDDRNTA [H7N] | 4.35
56 | KRSWEELVTHWMGQPFNSDDRNTA [H7L] | 2.64
57 | KRSWEEHVTHVMGQPFNSDDRNTA [W11V] | 3.19
58 | KRSWEEHVTHLMGQPFNSDDRNTA [W11L] | 2.85
59 | KRSWEEHVTHAMGQPFNSDDRNTA [W11A] | 2.97
60 | KRSWEEHVTHHMGQPFNSDDRNTA [W11H] | 2.95
61 | KRSWEEHVTHQMGQPFNSDDRNTA [W11Q] | 2.12
62 | KRSWEEHVTHSMGQPFNSDDRNTA [W11S] | 2.53
63 | KRSWEEHVTHFMGQPFNSDDRNTA [W11F] | 2.7
64 | KRSWEEHVTHRMGQPFNSDDRNTA [W11R] | 3.29
65 | KRSWEEHVTHDMGQPFNSDDRNTA [W11D] | 2.33
66 | KRSWEEHVTHPMGQPFNSDDRNTA [W11P] | 3.54
67 | KRSWEEHVTHIMGQPFNSDDRNTA [W11I] | 3.01
68 | KRSWEEHVTHTMGQPFNSDDRNTA [W11T] | 2.49
69 | KRSWEEHVTHCMGQPFNSDDRNTA [W11C] | 2.48
70 | KRSWEEHVTHNMGQPFNSDDRNTA [W11N] | 2.26
71 | KRSWEEHVTHEMGQPFNSDDRNTA [W11E] | 1.57
72 | KRSWEEHVTHKMGQPFNSDDRNTA [W11K] | 3.61

Row | Variant | protein stability index
73 | KRSWEEHVTHMMGQPFNSDDRNTA [W11M] | 2.54
74 | KRSWEEHVTHGMGQPFNSDDRNTA [W11G] | 2.69
75 | KRSWEEHVTHYMGQPFNSDDRNTA [W11Y] | 2.82
76 | KRSWEEHVTHWTGQPFNSDDRNTA [M12T] | 3.34
77 | KRSWEEHVTHWKGQPFNSDDRNTA [M12K] | 2.98
78 | KRSWEEHVTHWIGQPFNSDDRNTA [M12I] | 2.53
79 | KRSWEEHVTHWRGQPFNSDDRNTA [M12R] | 2.49
80 | KRSWEEHVTHWLGQPFNSDDRNTA [M12L] | 2.94
81 | KRSWEEHVTHWCGQPFNSDDRNTA [M12C] | 2.97
82 | KRSWEEHVTHWFGQPFNSDDRNTA [M12F] | 2.94
83 | KRSWEEHVTHWDGQPFNSDDRNTA [M12D] | 2.7
84 | KRSWEEHVTHWYGQPFNSDDRNTA [M12Y] | 3.21
85 | KRSWEEHVTHWNGQPFNSDDRNTA [M12N] | 2.79
86 | KRSWEEHVTHWEGQPFNSDDRNTA [M12E] | 2.32
87 | KRSWEEHVTHWSGQPFNSDDRNTA [M12S] | 2.57
88 | KRSWEEHVTHWAGQPFNSDDRNTA [M12A] | 2.44
89 | KRSWEEHVTHWHGQPFNSDDRNTA [M12H] | 2.94
90 | KRSWEEHVTHWGGQPFNSDDRNTA [M12G] | 2.63
91 | KRSWEEHVTHWQGQPFNSDDRNTA [M12Q] | 2.78
92 | KRSWEEHVTHWPGQPFNSDDRNTA [M12P] | 3.67
93 | KRSWEEHVTHWVGQPFNSDDRNTA [M12V] | 2.73
94 | KRSWEEHVTHWWGQPFNSDDRNTA [M12W] | 1.94
